Source: IntAct's records for PubMed 38225382

Key:
[1] = biological target: tri37_human TRIM37 (UniProt O94972)
[2] = biological target: pex3_human PEX3 (UniProt P56589)
Chain of pex3_human PEX3 (P56589 whole entry): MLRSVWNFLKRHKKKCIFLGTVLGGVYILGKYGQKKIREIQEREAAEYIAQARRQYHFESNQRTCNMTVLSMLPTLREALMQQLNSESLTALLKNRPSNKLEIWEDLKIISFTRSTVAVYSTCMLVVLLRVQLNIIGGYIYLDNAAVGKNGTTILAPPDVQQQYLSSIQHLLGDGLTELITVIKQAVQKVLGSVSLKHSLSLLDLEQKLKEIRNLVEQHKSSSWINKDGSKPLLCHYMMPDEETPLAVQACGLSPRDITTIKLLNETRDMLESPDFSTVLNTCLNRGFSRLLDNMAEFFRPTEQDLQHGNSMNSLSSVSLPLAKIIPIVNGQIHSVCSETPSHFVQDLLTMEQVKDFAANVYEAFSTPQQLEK

Chain of tri37_human TRIM37 (O94972 whole entry): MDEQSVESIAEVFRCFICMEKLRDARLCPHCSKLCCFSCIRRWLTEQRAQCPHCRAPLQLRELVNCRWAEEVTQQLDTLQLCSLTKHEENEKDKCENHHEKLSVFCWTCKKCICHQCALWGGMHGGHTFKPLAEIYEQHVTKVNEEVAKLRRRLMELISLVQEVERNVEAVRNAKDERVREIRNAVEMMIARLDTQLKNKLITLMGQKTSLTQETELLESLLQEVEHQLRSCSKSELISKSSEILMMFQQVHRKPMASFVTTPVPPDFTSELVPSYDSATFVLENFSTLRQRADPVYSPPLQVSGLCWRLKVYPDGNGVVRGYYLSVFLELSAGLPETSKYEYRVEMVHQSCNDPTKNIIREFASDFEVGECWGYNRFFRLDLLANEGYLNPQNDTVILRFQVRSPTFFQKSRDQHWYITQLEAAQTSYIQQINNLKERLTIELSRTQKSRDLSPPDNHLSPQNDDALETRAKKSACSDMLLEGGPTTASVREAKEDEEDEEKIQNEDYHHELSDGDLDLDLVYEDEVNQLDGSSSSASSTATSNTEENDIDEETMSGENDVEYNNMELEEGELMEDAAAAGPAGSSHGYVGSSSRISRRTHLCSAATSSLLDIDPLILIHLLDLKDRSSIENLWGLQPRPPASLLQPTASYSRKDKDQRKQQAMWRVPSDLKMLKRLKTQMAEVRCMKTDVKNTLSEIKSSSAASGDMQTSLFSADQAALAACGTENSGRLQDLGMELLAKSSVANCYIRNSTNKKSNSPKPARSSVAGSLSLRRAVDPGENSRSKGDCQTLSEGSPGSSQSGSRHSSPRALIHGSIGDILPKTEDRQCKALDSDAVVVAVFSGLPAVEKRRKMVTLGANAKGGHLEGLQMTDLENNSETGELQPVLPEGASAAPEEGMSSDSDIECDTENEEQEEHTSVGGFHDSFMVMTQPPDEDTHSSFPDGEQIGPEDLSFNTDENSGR
Chain of Peroxisomal membrane protein PEX16 (Homo sapiens), Q9Y5Y5 K169A (Q9Y5Y5 whole entry K169A): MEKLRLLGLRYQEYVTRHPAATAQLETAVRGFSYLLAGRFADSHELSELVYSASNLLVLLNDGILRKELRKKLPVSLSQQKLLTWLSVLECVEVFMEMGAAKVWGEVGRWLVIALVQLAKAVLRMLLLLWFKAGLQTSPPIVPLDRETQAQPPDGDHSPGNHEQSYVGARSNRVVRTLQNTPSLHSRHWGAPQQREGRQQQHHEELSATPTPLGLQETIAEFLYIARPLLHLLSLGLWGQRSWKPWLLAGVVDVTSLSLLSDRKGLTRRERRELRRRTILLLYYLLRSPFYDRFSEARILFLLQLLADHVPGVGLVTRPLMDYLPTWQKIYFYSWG
Chain of Peroxisomal membrane protein PEX16 (Homo sapiens), Q9Y5Y5 W189G (Q9Y5Y5 whole entry W189G): as the sequence (Q9Y5Y5 whole entry K169A) above, with A169K, W189G counted along it

| Substance | effect of a mutation on the interaction [1] | effect of a mutation on the interaction [2] |
| --- | --- | --- |
| Bifunctional polynucleotide phosphatase/kinase (Homo sapiens), Q96T60 P112R | with no effect | – |
| Bifunctional polynucleotide phosphatase/kinase (Homo sapiens), Q96T60 S114D | with no effect | – |
| Peroxisomal membrane protein PEX16 (Homo sapiens), Q9Y5Y5 K169A | – | with no effect |
| Peroxisomal membrane protein PEX16 (Homo sapiens), Q9Y5Y5 W189G | – | with no effect |
